Substrate in data set [1]: Nc1ncnc2c1ncn2[C@@H]1O[C@H](COP(=O)(O)OP(=O)(O)OP(=O)(O)O)[C@@H](O)[C@H]1O
The data set is described as follows: steady-state ATPase, malachite green phosphate release. Conditions: 55 °C, pH 7.5, 25 mM Tris-HCl, 50 mM KCl, 20 mM MgCl2, 50 mM NaCl. It counts as biochemical, Thermoplasma acidophilum. From the text: steady-state ATPase, malachite green phosphate release on Ta thermosome α8β8

Data set [2] deals with the molecule itself. The data set is described as follows: SEC + native gel or EMSA; α (intraloop His6) and β co-expressed in E. coli; complexes purified to homogeneity as in ref. 29; integrity by Superose 6 Increase SEC (main peak ≅950 kDa) and native-PAGE 3–12% (≅1 MDa); subunit composition by Tris-Acetate SDS-PAGE (7%) of the purified proteins.
Substrate in data set [3]: Nc1ncnc2c1ncn2[C@@H]1O[C@H](COP(=O)(O)OP(=O)(O)OP(=O)(O)O)[C@@H](O)[C@H]1O
The data set is described as follows: steady-state ATPase, malachite green phosphate release. The data set is classed as biochemical, Thermoplasma acidophilum. Conditions: single transition, 55 °C, pH 7.5, 25 mM Tris-HCl, 50 mM KCl, 20 mM MgCl2, 50 mM NaCl. From the text:
steady-state ATPase, malachite green phosphate release on WTα16 (α-only thermosome)

Data set [4] concerns the molecule itself. In words: SEC + native gel or EMSA; α subunit expressed in E. coli in the absence of the β; purified α16 complex; integrity by SEC and native PAGE.
The mark [5] stands for this setting: single transition, hydrolysis assigned to the WT beta subunits.
The mark [6] stands for this setting: single transition, hydrolysis on the WT alpha subunits only.

B1: Ta thermosome α8β8 (Thermoplasma acidophilum DSM 1728; P48424:D94A) (protein)
chain 1: MMTGQVPILVLKEGTQREQGKNAQRNNIEAAKAIADAVRTTLGPKGMDKMLVDSIGDIIISNDGATILKEMDVEHPTAKMIVEVSKAQDTAVGAGTTTAVVLSGELLKQAETLLDQGVHPTVISNGYRLAVNEARKIIDEIAEKSTDDATLRKIALTALSGKNTGLSNDFLADLVVKAVNAVAEVRDGKTIVDTANIKVDKKNGGSVNDTQFISGIVIDKEKVHSKMPDVVKNAKIALIDSALEIKKTEIEAKVQISDPSKIQDFLNQETNTFKQMVEKIKKSGANVVLCQKGIDDVAQHYLAKEGIYAVRRVKKSDMEKLAKATGAKIVTDLDDLTPSVLGEAETVEERKIGDDRMTFVMGCKNPKAVSILIRGGTDHVVSEVERALNDAIRVVAITKEDGKFLWGGGAVEAELAMRLAKYANSVGGREQLAIEAFAKALEIIPRTLAENAGIDPINTLIKLKAEHEKGRISVGVDLDNNGVGDMKAKGVVDPLRVKTHALESAVEVATMILRIDDVIASKKSTPPSGQGGQGQGMPGGGMPEY
chain 2: MIAGQPIFILKEGTKRESGKDAMKENIEAAIAISNSVRSSLGPRGMDKMLVDSLGDIVITNDGVTILKEMDVEHPAAKMMVEVSKTQDSFVGDGTTTAVIIAGGLLQQAQGLINQNVHPTVISEGYRMASEEAKRVIDEISTKIGADEKALLLKMAQTSLNSKSASVAKDKLAEISYEAVKSVAELRDGKYYVDFDNIQVVKKQGGAIDDTQLINGIIVDKEKVHPGMPDVVKDAKIALLDAPLEIKKPEFDTNLRIEDPSMIQKFLAQEENMLREMVDKIKSVGANVVITQKGIDDMAQHYLSRAGIYAVRRVKKSDMDKLAKATGASIVSTIDEISSSDLGTAERVEQVKVGEDYMTFVTGCKNPKAVSILVRGETEHVVDEMERSITDSLHVVASALEDGAYAAGGGATAAEIAFRLRSYAQKIGGRQQLAIEKFADAIEEIPRALAENAGLDPIDILLKLRAEHAKGNKTYGINVFTGEIEDMVKNGVIEPIRVGKQAIESATEAAIMILRIDDVIATKSSSSSSNPPKSGSSSESSED
notes: recombinant co-expression in E. coli BL21(DE3) Codon Plus-RIL, construct aK144HTTherm, intraloop His6-tag in each alpha subunit (kept), hexadecamer isolated on Superose 6, about 1 MDa
Consider B1, for which, in data set [1] (setting [5]), the Michaelis-Menten constant (Km) was determined as 82 ± 8.7 µM and the kcat is given as 2.4 ± 0.09 mol ATP/(mol active sites × min).

B2: Thermoplasma acidophilum thermosome α subunit D94K, with intraloop His6-tag (natural protein)
chain: MMTGQVPILVLKEGTQREQGKNAQRNNIEAAKAIADAVRTTLGPKGMDKMLVDSIGDIIISNDGATILKEMDVEHPTAKMIVEVSKAQDTAVGKGTTTAVVLSGELLKQAETLLDQGVHPTVISNGYRLAVNEARKIIDEIAEKSTDDATLRKIALTALSGKNTGLSNDFLADLVVKAVNAVAEVRDGKTIVDTANIKVDKKNGGSVNDTQFISGIVIDKEKVHSKMPDVVKNAKIALIDSALEIKKTEIEAKVQISDPSKIQDFLNQETNTFKQMVEKIKKSGANVVLCQKGIDDVAQHYLAKEGIYAVRRVKKSDMEKLAKATGAKIVTDLDDLTPSVLGEAETVEERKIGDDRMTFVMGCKNPKAVSILIRGGTDHVVSEVERALNDAIRVVAITKEDGKFLWGGGAVEAELAMRLAKYANSVGGREQLAIEAFAKALEIIPRTLAENAGIDPINTLIKLKAEHEKGRISVGVDLDNNGVGDMKAKGVVDPLRVKTHALESAVEVATMILRIDDVIASKKSTPPSGQGGQGQGMPGGGMPEY
notes: Thermoplasma acidophilum thermosome α subunit, NCBI CAC12109; site-directed mutant of construct aK144HTTherm; also called D94Kα; not shown: His6, internal (intraloop), kept
As for B2, the “stoichiometry N” value in data set [2] was determined as 16.

B3: Thermoplasma acidophilum thermosome α subunit, wild type, with intraloop His6-tag (natural protein)
chain: MMTGQVPILVLKEGTQREQGKNAQRNNIEAAKAIADAVRTTLGPKGMDKMLVDSIGDIIISNDGATILKEMDVEHPTAKMIVEVSKAQDTAVGDGTTTAVVLSGELLKQAETLLDQGVHPTVISNGYRLAVNEARKIIDEIAEKSTDDATLRKIALTALSGKNTGLSNDFLADLVVKAVNAVAEVRDGKTIVDTANIKVDKKNGGSVNDTQFISGIVIDKEKVHSKMPDVVKNAKIALIDSALEIKKTEIEAKVQISDPSKIQDFLNQETNTFKQMVEKIKKSGANVVLCQKGIDDVAQHYLAKEGIYAVRRVKKSDMEKLAKATGAKIVTDLDDLTPSVLGEAETVEERKIGDDRMTFVMGCKNPKAVSILIRGGTDHVVSEVERALNDAIRVVAITKEDGKFLWGGGAVEAELAMRLAKYANSVGGREQLAIEAFAKALEIIPRTLAENAGIDPINTLIKLKAEHEKGRISVGVDLDNNGVGDMKAKGVVDPLRVKTHALESAVEVATMILRIDDVIASKKSTPPSGQGGQGQGMPGGGMPEY
notes: Thermoplasma acidophilum thermosome α subunit, NCBI CAC12109; also called WTα; weak subunit; not shown: His6, internal (intraloop), kept
As for B3, in data set [2], the “stoichiometry N” value worked out at 16. Moreover, in data set [3], the Km is reported as 140 ± 15.7 µM and the kcat is 0.33 ± 0.015 mol ATP/(mol active sites × min). The “stoichiometry N” value in data set [4] was 16.

B4: Ta thermosome α8β8 (Thermoplasma acidophilum DSM 1728) (protein)
chain 1: MMTGQVPILVLKEGTQREQGKNAQRNNIEAAKAIADAVRTTLGPKGMDKMLVDSIGDIIISNDGATILKEMDVEHPTAKMIVEVSKAQDTAVGDGTTTAVVLSGELLKQAETLLDQGVHPTVISNGYRLAVNEARKIIDEIAEKSTDDATLRKIALTALSGKNTGLSNDFLADLVVKAVNAVAEVRDGKTIVDTANIKVDKKNGGSVNDTQFISGIVIDKEKVHSKMPDVVKNAKIALIDSALEIKKTEIEAKVQISDPSKIQDFLNQETNTFKQMVEKIKKSGANVVLCQKGIDDVAQHYLAKEGIYAVRRVKKSDMEKLAKATGAKIVTDLDDLTPSVLGEAETVEERKIGDDRMTFVMGCKNPKAVSILIRGGTDHVVSEVERALNDAIRVVAITKEDGKFLWGGGAVEAELAMRLAKYANSVGGREQLAIEAFAKALEIIPRTLAENAGIDPINTLIKLKAEHEKGRISVGVDLDNNGVGDMKAKGVVDPLRVKTHALESAVEVATMILRIDDVIASKKSTPPSGQGGQGQGMPGGGMPEY
chain 2: MIAGQPIFILKEGTKRESGKDAMKENIEAAIAISNSVRSSLGPRGMDKMLVDSLGDIVITNDGVTILKEMDVEHPAAKMMVEVSKTQDSFVGDGTTTAVIIAGGLLQQAQGLINQNVHPTVISEGYRMASEEAKRVIDEISTKIGADEKALLLKMAQTSLNSKSASVAKDKLAEISYEAVKSVAELRDGKYYVDFDNIQVVKKQGGAIDDTQLINGIIVDKEKVHPGMPDVVKDAKIALLDAPLEIKKPEFDTNLRIEDPSMIQKFLAQEENMLREMVDKIKSVGANVVITQKGIDDMAQHYLSRAGIYAVRRVKKSDMDKLAKATGASIVSTIDEISSSDLGTAERVEQVKVGEDYMTFVTGCKNPKAVSILVRGETEHVVDEMERSITDSLHVVASALEDGAYAAGGGATAAEIAFRLRSYAQKIGGRQQLAIEKFADAIEEIPRALAENAGLDPIDILLKLRAEHAKGNKTYGINVFTGEIEDMVKNGVIEPIRVGKQAIESATEAAIMILRIDDVIATKSSSSSSNPPKSGSSSESSED
notes: as for B1
As to B4, in data set [1] (biphasic, tight site), the Km is on record as 15 ± 1.65 µM and the kcat is 2.15 ± 0.12 mol ATP/(mol active sites × min).

B5: Thermoplasma acidophilum thermosome α subunit T97V, with intraloop His6-tag (natural protein)
chain: MMTGQVPILVLKEGTQREQGKNAQRNNIEAAKAIADAVRTTLGPKGMDKMLVDSIGDIIISNDGATILKEMDVEHPTAKMIVEVSKAQDTAVGDGTVTAVVLSGELLKQAETLLDQGVHPTVISNGYRLAVNEARKIIDEIAEKSTDDATLRKIALTALSGKNTGLSNDFLADLVVKAVNAVAEVRDGKTIVDTANIKVDKKNGGSVNDTQFISGIVIDKEKVHSKMPDVVKNAKIALIDSALEIKKTEIEAKVQISDPSKIQDFLNQETNTFKQMVEKIKKSGANVVLCQKGIDDVAQHYLAKEGIYAVRRVKKSDMEKLAKATGAKIVTDLDDLTPSVLGEAETVEERKIGDDRMTFVMGCKNPKAVSILIRGGTDHVVSEVERALNDAIRVVAITKEDGKFLWGGGAVEAELAMRLAKYANSVGGREQLAIEAFAKALEIIPRTLAENAGIDPINTLIKLKAEHEKGRISVGVDLDNNGVGDMKAKGVVDPLRVKTHALESAVEVATMILRIDDVIASKKSTPPSGQGGQGQGMPGGGMPEY
notes: Thermoplasma acidophilum thermosome α subunit, NCBI CAC12109; site-directed mutant of construct aK144HTTherm; also called T97Vα; not shown: His6, internal (intraloop), kept
For B5, the “stoichiometry N” value in data set [2] amounted to 16.

B6: Ta thermosome α8β8 (Thermoplasma acidophilum DSM 1728; P48425:D93K) (protein)
chain 1: MMTGQVPILVLKEGTQREQGKNAQRNNIEAAKAIADAVRTTLGPKGMDKMLVDSIGDIIISNDGATILKEMDVEHPTAKMIVEVSKAQDTAVGDGTTTAVVLSGELLKQAETLLDQGVHPTVISNGYRLAVNEARKIIDEIAEKSTDDATLRKIALTALSGKNTGLSNDFLADLVVKAVNAVAEVRDGKTIVDTANIKVDKKNGGSVNDTQFISGIVIDKEKVHSKMPDVVKNAKIALIDSALEIKKTEIEAKVQISDPSKIQDFLNQETNTFKQMVEKIKKSGANVVLCQKGIDDVAQHYLAKEGIYAVRRVKKSDMEKLAKATGAKIVTDLDDLTPSVLGEAETVEERKIGDDRMTFVMGCKNPKAVSILIRGGTDHVVSEVERALNDAIRVVAITKEDGKFLWGGGAVEAELAMRLAKYANSVGGREQLAIEAFAKALEIIPRTLAENAGIDPINTLIKLKAEHEKGRISVGVDLDNNGVGDMKAKGVVDPLRVKTHALESAVEVATMILRIDDVIASKKSTPPSGQGGQGQGMPGGGMPEY
chain 2: MIAGQPIFILKEGTKRESGKDAMKENIEAAIAISNSVRSSLGPRGMDKMLVDSLGDIVITNDGVTILKEMDVEHPAAKMMVEVSKTQDSFVGKGTTTAVIIAGGLLQQAQGLINQNVHPTVISEGYRMASEEAKRVIDEISTKIGADEKALLLKMAQTSLNSKSASVAKDKLAEISYEAVKSVAELRDGKYYVDFDNIQVVKKQGGAIDDTQLINGIIVDKEKVHPGMPDVVKDAKIALLDAPLEIKKPEFDTNLRIEDPSMIQKFLAQEENMLREMVDKIKSVGANVVITQKGIDDMAQHYLSRAGIYAVRRVKKSDMDKLAKATGASIVSTIDEISSSDLGTAERVEQVKVGEDYMTFVTGCKNPKAVSILVRGETEHVVDEMERSITDSLHVVASALEDGAYAAGGGATAAEIAFRLRSYAQKIGGRQQLAIEKFADAIEEIPRALAENAGLDPIDILLKLRAEHAKGNKTYGINVFTGEIEDMVKNGVIEPIRVGKQAIESATEAAIMILRIDDVIATKSSSSSSNPPKSGSSSESSED
notes: as for B1
With B6, in data set [1] (setting [6]), the Km is reported as 285 ± 35 µM and the kcat was 1.7 ± 0.14 mol ATP/(mol active sites × min).

Source of the values: article PMC5983026, “Intraring allostery controls the function and assembly of a hetero-oligomeric class II chaperonin” (The FASEB Journal, 2018).
